For this assay, the system named is target antigen-expressing cell line. Put plainly: Jurkat NFAT-GFP assay, coculture with target cell lines expressing the respective target antigen (summary Table 10A). Set-up: key: The signs +/−, +, 2+ etc. after the name of the cell lines indicate the relative degree of positivity on the Jurkat-NFAT-GFP assay as measured by the % GFP positive cells; +: relative degree of positivity on the Jurkat-NFAT-GFP assay as measured by the % GFP positive cells; 2+: relative degree of positivity on the Jurkat-NFAT-GFP assay as measured by the % GFP positive cells. To be noted: relative % GFP positive cells; for NFAT-GFP ASSAY Positive Cell lines: NALM6: SIR-expressing Jurkat-NFAT-GFP cells cocultured with NALM6; for NFAT-GFP ASSAY Positive Cell lines: RAJI: SIR-expressing Jurkat-NFAT-GFP cells cocultured with RAJI. The format is cell-based, human. A digest of the protocol: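 Jurkat cells carrying an NFAT-site IL-2 promoter driving GFP were lentivirally transduced with SIRs, puromycin-selected, then cocultured with antigen-expressing target cells at E:T about 1:2 for about 4–18 hours. GFP induction was read by flow cytometry as % GFP-positive cells versus parental Jurkat-NFAT-GFP.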

B1: 030217-G04 (protein)
chain: MALPVTALLLPLALLLHAARPDEIVLTQSPATLSLSPGERATLSCSASSSVSYMHWYQQKPGQAPRLLIYDTSKLASGIPARFSGSGSGTDFTLTISSLEPEDVAVYYCFQGSVYPFTFGQGTKLEIKRGGGGSGGGGSGGGGSQVQLQESGPGLVKPSQTLSLTCTVSGGSISTSGMGVGWIRQHPGKGLEWIGHIWWDDDKRYNPALKSRVTISVDTSKNQFSLKLSSVTAADTAVYYCARMELWSYYFDYWGQGTLVTVSSLEGKPIPNPLLGLDSTGSGEDLKNVFPPEVAVFEPSKAEIAHTQKATLVCLATGFYPDHVELSWWVNGKEVHSGVCTDPQPLKEQPALNDSRYCLSSRLRVSATFWQNPRNHFRCQVQFYGLSENDEWTQDRAKPVTQIVSAEAWGRADCGITSASYHQGVLSATILYEILLGKATLYAVLVSALVLMAMVKRKDSRGRAKRSGSGATNFSLLKQAGDVEENPGPTSMALPVTALLLPLALLLHAARPDDIVMTQSPDSLTVSLGERTTINCKSSQSVLDSSKNKNSLAWYQQKPGQPPKLLLSWASTRESGIPDRFSGSGSGTDFTLTIDSLQPEDSATYYCQQSAHFPITFGQGTRLEIKGGGGSGGGGSGGGGSQVQLVQSGAEVKKPGASVKVSCKASGYTFTNYGMNWVKQAPGQGLKWMGWINTYTGEPTYADDFKGRVTMTSDTSTSTAYLELHNLRSDDTAVYYCARWSWSDGYYVYFDYWGQGTTVTVSSTREQKLISEEDGSGIQNPDPAVYQLRDSKSSDKSVCLFTDFDSQTNVSQSKDSDVYITDKCVLDMRSMDFKSNSAVAWSNKSDFACANAFNNSIIPEDTFFPSSDVPCDVKLVEKSFETDTNLNFQNLSVIGFRILLLKVAGFNLLMTLRLWSSRAKRSGSGVKQTLNFDLLKLAGDVESNPGPSRGHMTEYKPTVRLATRDDVPRAVRTLAAAFADYPATRHTVDPDRHIERVTELQELFLTRVGLDIGKVWVADDGAAVAVWTTPESVEAGAVFAEIGPRMAELSGSRLAAQQQMEGLLAPHRPKEPAWFLATVGVSPDHQGKGLGSAVVLPGVEAAERAGVPAFLETSAPRNLPFYERLGFTVTADVEVPEGPRTWCMTRKPGA
As for B1, the “NFAT-GFP ASSAY Positive Cell lines: NALM6” value is recorded as “RAJI (+), NALM6 (+)” and the “NFAT-GFP ASSAY Positive Cell lines: RAJI” value was “RAJI (+), NALM6 (+)”.

B2: 030217-H02 (protein)
chain: MALPVTALLLPLALLLHAARPDEIVLTQSPATLSLSPGERATLSCSASSSVSYMHWYQQKPGQAPRLLIYDTSKLASGIPARFSGSGSGTDFTLTISSLEPEDVAVYYCFQGSVYPFTFGQGTKLEIKRGGGGSGGGGSGGGGSQVQLQESGPGLVKPSQTLSLTCTVSGGSISTSGMGVGWIRQHPGKGLEWIGHIWWDDDKRYNPALKSRVTISVDTSKNQFSLKLSSVTAADTAVYYCARMELWSYYFDYWGQGTLVTVSSLEGKPIPNPLLGLDSTGSGEDLKNVFPPEVAVFEPSKAEIAHTQKATLVCLATGFYPDHVELSWWVNGKEVHSGVCTDPQPLKEQPALNDSRYCLSSRLRVSATFWQNPRNHFRCQVQFYGLSENDEWTQDRAKPVTQIVSAEAWGRADCGITSASYHQGVLSATILYEILLGKATLYAVLVSALVLMAMVKRKDSRGRAKRSGSGATNFSLLKQAGDVEENPGPTSMALPVTALLLPLALLLHAARPDIQMTQSTSSLSASLGDRVTISCSASQGINNYLNWYQQKPDGTVELLIYYTSTLQSGVPSRFSGSGSGTDYSLTISNLEPEDIGTYYCQQYSKLPRTFGGGTKLEIKGGGGSGGGGSGGGGSQVQLQQSGSELMMPGASVKISCKATGYTFSNYWIEWVKQRPGHGLEWIGEILPGTGRTIYNEKFKGKATFTADISSNTVQMQLSSLTSEDSAVYYCARRDYYGNFYYAMDYWGQGTSVTVSSTREQKLISEEDGSGIQNPDPAVYQLRDSKSSDKSVCLFTDFDSQTNVSQSKDSDVYITDKCVLDMRSMDFKSNSAVAWSNKSDFACANAFNNSIIPEDTFFPSSDVPCDVKLVEKSFETDTNLNFQNLSVIGFRILLLKVAGFNLLMTLRLWSSRAKRSGSGVKQTLNFDLLKLAGDVESNPGPSRGHMTEYKPTVRLATRDDVPRAVRTLAAAFADYPATRHTVDPDRHIERVTELQELFLTRVGLDIGKVWVADDGAAVAVWTTPESVEAGAVFAEIGPRMAELSGSRLAAQQQMEGLLAPHRPKEPAWFLATVGVSPDHQGKGLGSAVVLPGVEAAERAGVPAFLETSAPRNLPFYERLGFTVTADVEVPEGPRTWCMTRKPGA
For B2, the “NFAT-GFP ASSAY Positive Cell lines: NALM6” value is recorded as “(+)” and the “NFAT-GFP ASSAY Positive Cell lines: RAJI” value was “RAJI (2+), NALM6”.

B3: 030217-E05 (protein)
chain: MALPVTALLLPLALLLHAARPDEIVLTQSPATLSLSPGERATLSCSASSSVSYMHWYQQKPGQAPRLLIYDTSKLASGIPARFSGSGSGTDFTLTISSLEPEDVAVYYCFQGSVYPFTFGQGTKLEIKRGGGGSGGGGSGGGGSQVQLQESGPGLVKPSQTLSLTCTVSGGSISTSGMGVGWIRQHPGKGLEWIGHIWWDDDKRYNPALKSRVTISVDTSKNQFSLKLSSVTAADTAVYYCARMELWSYYFDYWGQGTLVTVSSLEGKPIPNPLLGLDSTGSGEDLKNVFPPEVAVFEPSKAEIAHTQKATLVCLATGFYPDHVELSWWVNGKEVHSGVCTDPQPLKEQPALNDSRYCLSSRLRVSATFWQNPRNHFRCQVQFYGLSENDEWTQDRAKPVTQIVSAEAWGRADCGITSASYHQGVLSATILYEILLGKATLYAVLVSALVLMAMVKRKDSRGRAKRSGSGATNFSLLKQAGDVEENPGPTSTMALPVTALLLPLALLLHAARPDEIVLTQSPGSLAVSPGERVTMSCKSSQSVFFSSSQKNYLAWYQQIPGQSPRLLIYWASTRESGVPDRFTGSGSGTDFTLTISSVQPEDLAIYYCHQYLSSRTFGQGTKLEIKRGGGGSGGGGSGGGGSQVQLQQPGAEVVKPGASVKMSCKASGYTFTSYYIHWIKQTPGQGLEWVGVIYPGNDDISYNQKFQGKATLTADKSSTTAYMQLSSLTSEDSAVYYCAREVRLRYFDVWGQVTTVTVSSTREQKLISEEDGSGIQNPDPAVYQLRDSKSSDKSVCLFTDFDSQTNVSQSKDSDVYITDKCVLDMRSMDFKSNSAVAWSNKSDFACANAFNNSIIPEDTFFPSSDVPCDVKLVEKSFETDTNLNFQNLSVIGFRILLLKVAGFNLLMTLRLWSSRAKRSGSGVKQTLNFDLLKLAGDVESNPGPSRGHMTEYKPTVRLATRDDVPRAVRTLAAAFADYPATRHTVDPDRHIERVTELQELFLTRVGLDIGKVWVADDGAAVAVWTTPESVEAGAVFAEIGPRMAELSGSRLAAQQQMEGLLAPHRPKEPAWFLATVGVSPDHQGKGLGSAVVLPGVEAAERAGVPAFLETSAPRNLPFYERLGFTVTADVEVPEGPRTWCMTRKPGA
Turning to B3, the “NFAT-GFP ASSAY Positive Cell lines: RAJI” value is reported as “RAJI (+)”.

B4: 010417-B04 (protein)
chain: MALPVTALLLPLALLLHAARPLEGKPIPNPLLGLDSTGSGEDLKNVFPPEVAVFEPSKAEIAHTQKATLVCLATGFYPDHVELSWWVNGKEVHSGVCTDPQPLKEQPALNDSRYCLSSRLRVSATFWQNPRNHFRCQVQFYGLSENDEWTQDRAKPVTQIVSAEAWGRADCGITSASYHQGVLSATILYEILLGKATLYAVLVSALVLMAMVKRKDSRGRAKRSGSGATNFSLLKQAGDVEENPGPTSTMALPVTALLLPLALLLHAARPDEIVLTQSPATLSLSPGERATLSCSASSSVSYMHWYQQKPGQAPRLLIYDTSKLASGIPARFSGSGSGTDFTLTISSLEPEDVAVYYCFQGSVYPFTFGQGTKLEIKRGGGGSGGGGSGGGGSQVQLQESGPGLVKPSQTLSLTCTVSGGSISTSGMGVGWIRQHPGKGLEWIGHIWWDDDKRYNPALKSRVTISVDTSKNQFSLKLSSVTAADTAVYYCARMELWSYYFDYWGQGTLVTVSSTREAAAKDDIVMTQSPDSLTVSLGERTTINCKSSQSVLDSSKNKNSLAWYQQKPGQPPKLLLSWASTRESGIPDRFSGSGSGTDFTLTIDSLQPEDSATYYCQQSAHFPITFGQGTRLEIKGGGGSGGGGSGGGGSQVQLVQSGAEVKKPGASVKVSCKASGYTFTNYGMNWVKQAPGQGLKWMGWINTYTGEPTYADDFKGRVTMTSDTSTSTAYLELHNLRSDDTAVYYCARWSWSDGYYVYFDYWGQGTTVTVSSTREQKLISEEDGSGIQNPDPAVYQLRDSKSSDKSVCLFTDFDSQTNVSQSKDSDVYITDKCVLDMRSMDFKSNSAVAWSNKSDFACANAFNNSIIPEDTFFPSSDVPCDVKLVEKSFETDTNLNFQNLSVIGFRILLLKVAGFNLLMTLRLWSSRAKRSGSGVKQTLNFDLLKLAGDVESNPGPSRGHMTEYKPTVRLATRDDVPRAVRTLAAAFADYPATRHTVDPDRHIERVTELQELFLTRVGLDIGKVWVADDGAAVAVWTTPESVEAGAVFAEIGPRMAELSGSRLAAQQQMEGLLAPHRPKEPAWFLATVGVSPDHQGKGLGSAVVLPGVEAAERAGVPAFLETSAPRNLPFYERLGFTVTADVEVPEGPRTWCMTRKPGA
As to B4, the “NFAT-GFP ASSAY Positive Cell lines: NALM6” value is on record as “+” and the “NFAT-GFP ASSAY Positive Cell lines: RAJI” value was “RAJI (+), NALM6”. The “NFAT-GFP ASSAY Positive Cell lines: HL60” value (SIR-expressing Jurkat-NFAT-GFP cells cocultured with HL60) was “+/−”.

For the origin of these results see patent publication US12269859B2, “Synthetic immune receptors and methods of use thereof” (Angeles Therapeutics, Inc., priority 2016, dated 2025).
